B1: EG11(44) (ssDNA)
DNA: CGAGGTAGCTTACCCGCTTATGTTCACTGTGGGTTGCTGGCTCG
B2: EG11(44) unlabelled (ssDNA)
DNA: B1 DNA

Columns and labels:
[1] = biological target: ESAT6 (early secretory antigenic target 6 kDa) (Mycobacterium tuberculosis H37Rv, UniProt P9WNK7 P9WNK7:1-95); assay: fluorescence of Cy3-aptamer bound to ESAT6 on magnetic beads; 20 mM Tris, 50 mM NaCl, 5 mM KCl, 5 mM MgCl2, pH 8.0; settings: label: Cy3
Procedure: 400 pmole of ESAT6 was mixed with 10 μL of magnetic beads, and then incubated in 100 μL of a binding buffer (20 mM Tris, 50 mM NaCl, 5 mM KCl, 5 mM MgCl₂, pH 8.0) for 1 hour. To separate unbound ESAT6, washing was performed twice with a binding buffer. Subsequently, the resulting mixture was incubated together with various concentrations of a Cy3-labeled aptamer, and an unbound aptamer was removed by washing. The amount of Cy3-labeled ssDNA aptamer bound to the magnetic beads with ESAT6 immobilized thereon was measured by fluorescence measurement (1420 Victor Multilabel counter, PerkinElmer, USA) by separating only Cy3-labeled ssDNA bound to ESAT6. As a result, as shown in FIG. 3 and Table 2 below, the Kd value of the DNA aptamer having a EG11(44) base sequence was measured.

TB7.7 = biological target: T1, TB7.7 (UniProt P9WJ11 P9WJ11:1-81); assay: electrochemical impedance specificity test; 10 pM protein in PBS
T1 sequence: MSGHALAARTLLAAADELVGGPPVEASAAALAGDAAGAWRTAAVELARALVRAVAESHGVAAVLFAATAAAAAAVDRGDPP
Excerpt: (§1) At this time, each protein was mixed at a concentration of 10 pM with PBS and used for detection.

CFP-10 = CFP-10 (UniProt P9WNK5 P9WNK5:1-100); assay: as above
Excerpt: as §1

Sequence of ESAT6 (early secretory antigenic target 6 kDa) (P9WNK7 whole entry, one chain of several): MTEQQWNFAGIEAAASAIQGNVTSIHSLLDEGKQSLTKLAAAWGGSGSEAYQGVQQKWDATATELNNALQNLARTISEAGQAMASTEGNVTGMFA
Sequence of CFP-10 (P9WNK5 whole entry, one chain of several): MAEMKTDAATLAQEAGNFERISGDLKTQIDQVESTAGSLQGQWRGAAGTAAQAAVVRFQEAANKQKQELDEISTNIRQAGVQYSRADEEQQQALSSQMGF

Binder | Kd [1] [nM] | binding result (TB7.7) | binding result (CFP-10)
B1 | 31.4 | – | –
B2 | – | no binding | no binding

From patent publication US20200340992, “DNA APTAMER […] BINDING TO ESAT6, AND USE […]” (MD APTUS INC., published 2020)
